The term Kd denotes a measure of binding affinity in units of concentration. High values mean weaker binding, low ones tighter binding. One may read the koff as a measure of how fast the partners let go of each other. High values mean a short-lived complex, low ones a long-lived complex. A word on the kon: it is a measure of how fast the partners come together. A lower kon goes with slow association.

Experimental findings from article PMC9227038, “Characterization of Four Medically Important Toxins from Centruroides huichol Scorpion Venom and Its Neutralization by a Single Recombinant Antibody Fragment” (Toxins, 2022) are described below.

Common to all, as to assay: SPR
What all share (conditions): both partners purified

The target of test [1] is T1, Chui3 toxin (Centruroides huichol, UniProt C0HM16).
T1 construct: also called Chui3/Cn3; FII.9-3

Test [2] addresses T2, Chui4 toxin (Centruroides huichol, UniProt C0HM17).
T2 construct: also called FII.10-1

Test [3] deals with T3, Chui2 toxin (Centruroides huichol, UniProt C0HM15).
T3 construct: also called FII.9-2

Test [4] deals with T4, Chui5 toxin (Centruroides huichol, UniProt C0HM18).
T4 construct: also called FII.12-1

Test [5] has as its target T4, Chui5 toxin. This is another data set of the same source.
The target of test [6] is T4, Chui5 toxin. This is another data set of the same source.
Test [7] deals with T4, Chui5 toxin. The source holds these as a separate data set.
The target in test [8] is T1, Chui3 toxin. This is another data set of the same source.
Test [9] deals with T2, Chui4 toxin. This is another data set of the same source.
Test [10] deals with T3, Chui2 toxin. This is another data set of the same source.

Numbering of substitutions follows the chain as printed.

T4 sequence (C0HM18 whole entry): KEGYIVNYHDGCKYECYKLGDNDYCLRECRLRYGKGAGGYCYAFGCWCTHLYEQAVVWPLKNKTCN
T3 sequence (C0HM15 whole entry): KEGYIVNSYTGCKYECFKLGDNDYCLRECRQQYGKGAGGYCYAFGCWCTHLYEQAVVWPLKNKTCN
T2 sequence (C0HM17 whole entry): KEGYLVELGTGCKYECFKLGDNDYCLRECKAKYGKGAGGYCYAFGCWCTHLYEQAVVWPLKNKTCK
T1 sequence (C0HM16 whole entry): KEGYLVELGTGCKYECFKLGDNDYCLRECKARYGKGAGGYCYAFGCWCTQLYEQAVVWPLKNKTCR

B1: scFv 10FG2 (scFv, V domains shown)
VH: QVNLRESGGGLVQPGGSLRLSCAASGFSFGSYGMHWVRQAPGKGLEWVAVISYGGGSKYYADSVKGRFTISRDNSKNTLYLQMNSLRAEDTAVYYCAKDARDCLLCSDWTFDLWGRGTLVTVSS
VL: NFMLTQPHSASGTPGQRVTISCSGSSSNIGSNTVNWYRHLPGSAPELLIGSHNQRPSGVPDRFSGSKSGTSASLAISGLQSEDEADYYCAAWDDSTLGYVFGTGTKLTVL
notes: source: E. coli TG1 (pSyn1), purified (Ni2+-NTA, Superdex 75 SEC)
For B1, in the test with Chui3 toxin [1], the affinity, expressed as Kd, was 1.8 nM; the “TR (residence time)” value is 53.1 min; the koff was determined as 0.00031 s⁻¹; the kon amounted to 180000 M⁻¹ s⁻¹. For the same molecule, in the test with Chui4 toxin [2], the Kd came out at 0.3 nM, the “TR (residence time)” value is 242 min, the koff was determined as 7e-05 s⁻¹ and the kon was 210000 M⁻¹ s⁻¹. Also, in the test with Chui2 toxin [3], the dissociation constant Kd was 1.1 nM, the “TR (residence time)” value was 60.4 min, the koff was found to be 0.00028 s⁻¹ and the kon is 280000 M⁻¹ s⁻¹.

B2: scFv 9a (scFv, V domains shown)
VH: B1 VH with L105Q
VL: B1 VL
notes: also called variant 9a; clone 9a
In the test with Chui5 toxin [4], B2 yielded a Kd of 8.2 nM, a koff of 0.00119 s⁻¹ and an association rate constant (kon) of 150000 M⁻¹ s⁻¹.

B3: scFv HV (scFv, V domains shown)
VH: B1 VH with F29Y, K65Q, L105G
VL: B1 VL with G15E
notes: also called HV variant
The molecule B3 showed a dH with Chui5 toxin [5] of -6.69 kJ/mol. Also, the dissociation constant (Kd) stood at 6.9 nM with Chui5 toxin [6], 3.8 nM in the test with Chui3 toxin [1], 0.9 nM with Chui4 toxin [2] and 3.1 nM with Chui2 toxin [3]. Further, the “TR (residence time)” value with Chui5 toxin [6] was 15.5 min; in the test with Chui3 toxin [1] it was 48.8 min; in the test with Chui4 toxin [2] it was 105 min; in the test with Chui2 toxin [3], 34.2 min. The koff with Chui5 toxin [6] came out at 0.00108 s⁻¹; with Chui3 toxin [1], 0.00034 s⁻¹; in the test with Chui4 toxin [2], 0.00016 s⁻¹; in the test with Chui2 toxin [3] it was 0.00049 s⁻¹. Also, the kon in the test with Chui5 toxin [6] was found to be 160000 M⁻¹ s⁻¹; in the test with Chui3 toxin [1] it was 90000 M⁻¹ s⁻¹; with Chui4 toxin [2] it was 180000 M⁻¹ s⁻¹; with Chui2 toxin [3], 160000 M⁻¹ s⁻¹.

B4: scFv B15a (scFv, V domains shown)
VH: B1 VH with K65Q, L105Q
VL: B1 VL
notes: also called B15a variant; source: E. coli TG1 (pSyn1), purified (Ni2+-NTA, Superdex 75 SEC)
As to B4, in the test with Chui5 toxin [4], the Kd turned out to be 7.3 nM, the koff was found to be 0.00097 s⁻¹ and the kon came out at 130000 M⁻¹ s⁻¹. The dH with Chui5 toxin [5] is -10.9 kJ/mol.

B5: scFv LR (scFv, V domains shown)
VH: EVQLVESGGGLVQPGGSLRLSCTGSGFTFDNYAMHWLRQVPGEGLEWVSGISRSSGDIDYADSVKGRFTISRDDAKKTLSLQMNSLRAEDTAVYYCARGGFGSFDTWGQGTMVTVSS
VL: EIVLTQSPATLSVSPGERATLSCRASQSVRSYLAWYQQKPGQAPRLLFSDASNRATGIPARFTGSGSGTDFTLTISSLEPEDFAIYYCQQYRYSPRTFGQGTKVEIK
As to B5, the binding result in the test with Chui5 toxin [7] is “no binding (tested: 25 nM)”; in the test with Chui3 toxin [8] it was “binds”; with Chui4 toxin [9], “binds”; with Chui2 toxin [10] it was “binds”.
